Laboratory results as given in PMC4233142.

Target: YFPC-2aCore (hepatitis C virus genotype 2a (JFH-1)) (UniProt Q99IB8)
Assay: split reporter

YFPN-2a5B (from UniProt Q99IB8 2443-3033) (natural protein)
percent of RFP-expressing cells that also expressed YFP: 43%
